Paper doi:10.1101/2020.06.07.137802 (bioRxiv, 2020)
*: point of attachment. Biotin = O=C1N[C@H]2[C@H](CS[C@H]2CCCCC(=O)*)N1; Ahx = NCCCCCC(=O)O

Target: T1, recombinant, soluble extracellular b1b2 domain of human NRP1, wild type (residues 274-584) (human, UniProt O14786 274-584)
T1 sequence: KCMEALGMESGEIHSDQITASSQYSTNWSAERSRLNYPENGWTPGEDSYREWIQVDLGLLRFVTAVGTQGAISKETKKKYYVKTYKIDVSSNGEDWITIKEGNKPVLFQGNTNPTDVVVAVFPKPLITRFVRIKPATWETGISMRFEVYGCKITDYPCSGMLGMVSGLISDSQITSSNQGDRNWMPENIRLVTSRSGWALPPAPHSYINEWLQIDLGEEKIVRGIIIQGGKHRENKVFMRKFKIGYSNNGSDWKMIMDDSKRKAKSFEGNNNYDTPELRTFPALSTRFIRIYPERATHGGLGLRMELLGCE

{Biotin-Ahx}-RPARPAR-OH (also: on silver nanoparticles) [biotin-Ahx-RPARPAR-OH, prototypic NRP1-binding CendR peptide, on silver nanoparticles (AgNP-CendR)]: binds.
